Measured values taken from US12194057B2, “NXTAR-derived oligonucleotides and uses thereof” (Washington University, priority 2020, dated 2025).

Assays:
VCaP and 22Rv1 cells = assay: Proliferation assay, viable cells by trypan blue exclusion; assay type: cell-based, human
Protocol: (§1) NXTAR-N5 oligonucleotide was synthesized by IDT, and the oligonucleotide sequence is provided in TABLE 1 and FIG. 7C (* represents phosphorothioate bond modifications to avoid degradation by exonucleases). Equal numbers of VCaP and 22Rv1 cells were transfected with NXTAR-N5 or globin-derived oligonucleotide using X-tremeGENE360 (Sigma-Aldrich, Cat #08724121001), and the number of live cells was counted 96 h post-transfection using trypan blue exclusion method (Sigma, Cat #T8154). RNA was prepared from these cells, and qRT-PCR [SYBR PremixEx Taq II (Tli RNase H Plus)ROX, Clontech Takara, Cat #RR82LR] for AR and AR-V7 was performed as described earlier (see e.g., Mahajan et al. (2017) Cancer Cell).
The 22Rv1, VCaP, or LNCaP cells were retrovirally infected with control or NXTAR vectors and selected in puromycin medium containing 5% charcoal-stripped serum. Equal numbers of selected cells were seeded in 6-well plates followed by treatment with either (R)-9b, enzalutamide (Selleck Chemicals, Cat #S1250), or abiraterone (Selleck Chemicals, Cat #52246), and the number of viable cells was counted by trypan blue exclusion assay.

EZH2 = target: T1, EZH2 (Homo sapiens, UniProt Q15910); assay: Pull-down from VCaP cell lysates with biotinylated oligos, immunoblotting for EZH2; assay type: binding; settings: VCaP cells with retroviral expression of NXTAR
T1 construct: endogenous in cells; host or cells: VCaP cells (some retrovirally infected to over-express NXTAR lncRNA)
T1 sequence (Q15910 whole entry): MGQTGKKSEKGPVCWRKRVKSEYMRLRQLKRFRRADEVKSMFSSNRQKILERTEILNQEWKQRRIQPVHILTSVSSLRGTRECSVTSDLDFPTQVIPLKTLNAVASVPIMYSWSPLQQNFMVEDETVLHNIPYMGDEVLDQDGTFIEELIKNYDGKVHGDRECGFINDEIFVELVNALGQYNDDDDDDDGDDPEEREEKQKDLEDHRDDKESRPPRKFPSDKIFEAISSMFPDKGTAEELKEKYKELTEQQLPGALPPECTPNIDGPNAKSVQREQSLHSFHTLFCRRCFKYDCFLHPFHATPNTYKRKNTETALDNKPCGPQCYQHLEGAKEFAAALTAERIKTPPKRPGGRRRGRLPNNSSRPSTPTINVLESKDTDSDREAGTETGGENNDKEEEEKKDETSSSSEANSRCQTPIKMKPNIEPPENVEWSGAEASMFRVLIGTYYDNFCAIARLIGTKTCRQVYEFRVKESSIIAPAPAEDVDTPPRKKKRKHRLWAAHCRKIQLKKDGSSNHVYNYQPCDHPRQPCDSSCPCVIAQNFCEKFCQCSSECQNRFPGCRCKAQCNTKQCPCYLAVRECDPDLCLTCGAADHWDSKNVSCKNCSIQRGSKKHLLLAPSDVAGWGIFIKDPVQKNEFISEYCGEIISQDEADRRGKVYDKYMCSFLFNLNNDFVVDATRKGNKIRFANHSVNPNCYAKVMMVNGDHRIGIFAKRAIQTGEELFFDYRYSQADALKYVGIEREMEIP
T1 sequence (O75530 whole entry partner): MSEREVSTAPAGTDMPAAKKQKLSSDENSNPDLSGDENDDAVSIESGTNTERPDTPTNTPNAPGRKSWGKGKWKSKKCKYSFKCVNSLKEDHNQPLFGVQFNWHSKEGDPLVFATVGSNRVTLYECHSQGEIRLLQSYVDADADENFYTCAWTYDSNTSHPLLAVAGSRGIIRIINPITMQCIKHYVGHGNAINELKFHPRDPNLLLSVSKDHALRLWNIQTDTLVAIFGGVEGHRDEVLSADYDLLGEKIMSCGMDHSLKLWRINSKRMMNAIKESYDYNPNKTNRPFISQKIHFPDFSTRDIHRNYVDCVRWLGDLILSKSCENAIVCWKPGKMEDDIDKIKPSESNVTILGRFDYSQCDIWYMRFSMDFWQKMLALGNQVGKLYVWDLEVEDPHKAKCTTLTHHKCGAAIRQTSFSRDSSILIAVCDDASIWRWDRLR
T1 sequence (Q15022 whole entry partner): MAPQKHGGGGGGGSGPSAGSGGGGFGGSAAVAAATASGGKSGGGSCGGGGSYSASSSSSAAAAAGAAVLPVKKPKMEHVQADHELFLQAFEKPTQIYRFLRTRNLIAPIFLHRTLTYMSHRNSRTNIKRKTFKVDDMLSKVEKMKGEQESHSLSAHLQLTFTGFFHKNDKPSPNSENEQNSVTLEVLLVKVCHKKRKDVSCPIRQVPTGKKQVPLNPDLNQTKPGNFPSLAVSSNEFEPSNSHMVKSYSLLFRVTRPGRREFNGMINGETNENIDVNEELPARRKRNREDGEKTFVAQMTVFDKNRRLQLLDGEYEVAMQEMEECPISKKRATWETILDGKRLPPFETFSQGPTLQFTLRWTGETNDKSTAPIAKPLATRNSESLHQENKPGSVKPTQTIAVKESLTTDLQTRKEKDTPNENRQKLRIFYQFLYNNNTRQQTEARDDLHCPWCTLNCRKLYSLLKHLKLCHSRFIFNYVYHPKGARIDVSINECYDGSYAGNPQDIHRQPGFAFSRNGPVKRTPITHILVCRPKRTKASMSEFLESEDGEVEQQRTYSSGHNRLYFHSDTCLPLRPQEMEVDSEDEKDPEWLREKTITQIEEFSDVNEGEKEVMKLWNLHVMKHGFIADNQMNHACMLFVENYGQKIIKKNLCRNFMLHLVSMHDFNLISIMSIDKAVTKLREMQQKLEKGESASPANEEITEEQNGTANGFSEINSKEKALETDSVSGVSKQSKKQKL
T1 sequence (Q09028 whole entry partner): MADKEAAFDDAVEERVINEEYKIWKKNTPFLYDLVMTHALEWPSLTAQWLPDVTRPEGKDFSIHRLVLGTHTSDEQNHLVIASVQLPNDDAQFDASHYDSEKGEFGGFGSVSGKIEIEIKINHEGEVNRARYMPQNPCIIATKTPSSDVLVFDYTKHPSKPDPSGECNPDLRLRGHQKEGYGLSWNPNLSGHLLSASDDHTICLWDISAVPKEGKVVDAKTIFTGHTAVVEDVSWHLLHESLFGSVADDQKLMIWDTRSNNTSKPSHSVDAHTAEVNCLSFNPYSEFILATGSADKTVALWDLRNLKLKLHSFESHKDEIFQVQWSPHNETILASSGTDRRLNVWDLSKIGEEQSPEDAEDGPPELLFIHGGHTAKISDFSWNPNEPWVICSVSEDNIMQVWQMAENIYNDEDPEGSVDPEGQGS
Protocol: The biotinylated oligonucleotides were incubated with lysates (2 h), and the lysates were incubated with streptavidin magnetic beads overnight. Beads attached to RNAs were divided equally and processed for either RNA isolation or western blotting. For RNA isolation, beads were washed three times and then separated using proteinase K treatment. RNA was then isolated and purified, and DNA was digested in the process. The real-time quantitative RT-PCR was performed on isolated RNA to check the efficiency of pull-down of NXTAR RNA. The remaining beads were heated at 80° C. for 5 min in loading buffer, followed by western blotting. The blots were probed with EZH2 (CST, 5246S; RRID:AB_10694683) antibody and Actin (SCBT, sc-47778; RRID:AB_2714189) was used as the loading control.
Biotin-labeled NXTAR-N5 (complementary to the AR promoter) and globin oligos were synthesized (IDT) (see e.g., TABLE 1). ChIRP was performed using lysate from formaldehyde-fixed VCaP cells and oligos that were immobilized to streptavidin beads, as described earlier (see e.g., Chu and Chang (2016) Methods Mol Bio). The amount of the chromatin DNA was determined by real-time PCR. For detection of NXTAR-N5/EZH2 binding, biotin-labeled NXTAR-N5 oligo and control globin oligo were incubated with VCaP cell lysates and were subjected to chromatin pull-down, followed by immunoblotting with EZH2 antibodies.

AR [1] = assay: Immunoblotting of AR protein in prostate cancer cells; assay type: cell-based, human
Protocol: Cells were harvested, lysed by sonication in receptor lysis buffer (see e.g., Mahajan et al. (2010) PLoS One) and 20-50 μg of protein lysates were fractionated by SDS-PAGE, and transferred onto a PVDF membrane (Immobilon, Cat #IPVH00010). After blocking in 5% nonfat dry milk (RPI, Cat #M17200) (or 3% BSA, Goldbio, Cat #A-420-500), membranes were incubated with the following monoclonal antibodies: AR (SCBT, Cat #sc-7305; RRID:AB 626671), pY276-AR (29), ACK1 (SCBT, sc-28336; RRID:AB 626629), pACK1 (Upstate, 09-142; RRID:AB 612088), EZH2, and Actin. The signals were visualized by using the enhanced chemiluminescence (ECL; Pierce, 32106) system.

purified EZH2 = target: T2, purified EZH2 (Homo sapiens, UniProt Q15910); assay: EZH2 pull-down assay with purified 6xHis-tagged EZH2; assay type: binding; settings: immobilized on streptavidin beads
T2 construct: made in house
T2 sequence (Q15910 whole entry): as the sequence (Q15910 whole entry) above
Protocol: 1 mg of lysate prepared from HEK293 cells transfected with 6λHis-tagged-EZH2 plasmid was incubated with Ni-NTA agarose beads (Qiagene) overnight at 4° C. Beads were washed three times using wash buffer (20 mM Tris/HCl, 200 mM NaCl, 5 mM imidazole; pH 7.5) and purified EZH2 was eluted using elution buffer (20 mM Tris/HCl, 200 mM NaCl, 200 mM imidazole; pH 7.5).
LncRNA-Protein binding study was performed as described earlier (see e.g., Zhao, Wang, and Hu (2021) Methods Mol Bio). Briefly, 10 pmol Biotinylated NXTAR-N5 oligo or Biotinylated Globin oligos were diluted in 40 ul RNA structure buffer, heated at 90° C. for 2 min, immediately transferred onto ice for 2 min and then kept at RT for further 20 mins. 10 uM of purified EZH2 protein was added to these biotinylated oligos with 500 ul of NETN buffer and the tubes were placed at 4° C. for 2 hrs. Post washing with cold NETN buffer, streptavidin magnetic beads (60 ul) were added into prepared oligo-protein mix and incubated at 4° C. overnight. Beads were washed 3 times with NETN buffer, followed by western blot analysis. […]

AR [2] = assay: qRT-PCR of AR and AR target gene expression in prostate cancer cells; assay type: cell-based, human
Protocol: as §1
(§2) Cells were transfected, infected or treated [(R)-9b; EPZ6438, TargetMol, Cat #T1788] accordingly. RNA was used for cDNA preparation using High-Capacity cDNA Reverse Transcription Kit (Thermo Scientific Cat #4368814). Resulting cDNA was then analyzed by qPCR using an Applied Biosystems 7900 Real-Time PCR System (Thermo Scientific) and SYBR Green PCR Master Mix [SYBR PremixEx Taq II (Tli RNase H Plus) ROX, Clontech Takara, Cat #RR82LR] according to the manufacturers' instructions. Dissociation curves were generated for each plate to verify the integrity of the primers. The relative expression of RNAs was calculated using the comparative Ct or standard curve method. 18S rRNA or actin were used as internal controls.

AR-V7 = assay: qRT-PCR of AR-V7 expression in prostate cancer cells; assay type: cell-based, human; settings: 22Rv1 cells, reintroduction of NXTAR
Protocol: as §1
as §2, with “18S rRNA or actin were used as internal controls.” left out

[3] = 22Rv1 and VCaP cells infected with retroviral NXTAR construct

B1: NXTAR: long non-coding RNA, 1476-nt transcript (SEQ ID NO: 58), expressed from retroviral or plasmid constructs (nucleic acid, listed as Homo sapiens)
chain: GGAAAAGGAAGGCTGCACAGAAGAACTGGCATTTGTGTTCTGCCTACAAAGCTGAAAAGGATTTCACCCAAATCAGGGAAGATCAGCCTTATGAGGTGGATATTATTGCCACAATAATTTTCCAGATGAAAAATGGAGGCCCAGAGATGTTAAGGAATTTGCCCAAGATCATGAAAAGACACTCTCCCCTATTGAGATGTCATGCAAGGATCAGTGCTGTGTGAAAATCCACATGAAGCAGGAAATGCAGGTGGTGGTGTCCAATCTGATTTCAAGATCTGAGAAGCTGTGCACTGCCTGAAAGGTATCTATTTAAGGTGTCACCAGACTCCTGCTCCACTCCTGCCCAAGGCCCAGCCCATCCAAGAGCAAAAGGCAAGTGGTGTTACAACCTTGGGATTTCCTGTATCTGCCCTCTTGCGGATAGCAGGACAGAGTCACAGCTGCATTAAATTCGCTTAAGACTTATTGAGACACTTCAACACTTCAACAACGACCTGTGAGATTAAGATTATTATTTTAAATTTACAGAAGGGGAAACTAAGAATTATAGACATGAAGTGACTCACCTATGACCACCTGGTGATAGAACCAGGACTAGAGCTCAGGTATGAAGATTTCTGGGGGAGTCCCTGAAAAAAAGGCTCCATATGGAATTACAATGTGGAAAAGGCCAAGGCCTCACCAACCCTTTTCTCTTCAACACCTGGATCCCTAAGTCCTTATTCGTAACCTCCTCTTTGGACAAGGTTTTGGTAGACAAAGCCAGAGCCTCTTGCACTGAGAAAGACAAATTCTCCTCTTGCAGTGAACCACAGGTAAATGCTCCAATAGAGAGTCCAAGCCAAACCTCCGGGTGTTATTCATGACCCAGGCAAGTCTGCTTTCTCATTCCCCCTATCTCTAGACCGTTTTCCATTTGGGCTTCCTTTTCTTCTTTTATCCTCAAAGAAACATGTTTCCTTCTAGTAGGTTTGGCTGCCACCACTAGGGTCCTGGCTACAACTGGCCCTCAGGTAACTCTCTCACCTCTGAGTTGGATAGTATCCTCTCTCGTCCCCATACACAAGTGTTTCTCTTCCCAGACACCTTCCTTACACAATTTCCCATTTCTTTCTCATCTCACCCTTGCTTTAATCAACATAGTTCTTTCCCCTGAGATTACTCTTCAGCCTTTCTTGTTGAAGCACTGCCCAGTGGTTCTCTTGGGATTTCCATTTCTCTCCCCTCAGCTCTCTTGGTACCAAATTCTGTAAGCTTCTCTGGTTTTTGGTTTCTCTTCCTTCTTTTCCTTCCAGGCAACATTTACTCAATCTAGGCTTGGATGATCAGGTACTTCTGCCAGCCTGCCCACTAGGGAACTCTGGGCTAGGAATATGTCTCAATGGCACCATTATATTTGGAAGGACGCTTCTGTATTTACACTGAACACACTAAAATACTAAACTTGAAGCCAAAATCCCCTCTCTGGCTCCA
B1 was tested, and the sensitivity to abiraterone (VCaP and 22Rv1 cells; 22Rv1 cells expressing NXTAR, 5 days) was “further sensitized them”, the “proliferation upon enzalutamide treatment” value (VCaP and 22Rv1 cells; VCaP and 22Rv1 cells expressing NXTAR) was “significantly compromised proliferation” and the proliferation (VCaP and 22Rv1 cells; VCaP and 22Rv1 cells, NXTAR expression vs pBABE vector) was “severe loss of proliferation”. For the same molecule, the “EZH2 binding in RNA pull-down” value (EZH2) was “EZH2 could bind to NXTAR RNA”, the AR protein (AR [1]; 22Rv1 cells, NXTAR construct 0.25-2 μg, 48 hrs) was “dose-dependent downregulation of AR” and the AR protein (AR [1]; LNCaP and 22Rv1 cells, NXTAR plasmid 24, 48 and 72 hrs) was “decreased upon NXTAR expression in a time-dependent manner”. For the same molecule, the “AR expression (protein)” value (AR [1]; VCaP and 22Rv1 cells, NXTAR expression) was “loss of AR expression”, the “binding to purified EZH2” value (purified EZH2) was “considerable binding” and the “AR mRNA level” value (AR [2]; [3]) was “significant decrease in AR mRNA level”. For the same molecule, the KLK3 expression (AR [2]; [3]) was “significant loss of expression”, the TMPRSS2 expression (AR [2]; [3]) was “significant loss of expression” and the “AR and KLK3/PSA levels post-DHT-treatment” value (AR [2]; LNCaP and 22Rv1 cells, DHT 10 nM overnight, NXTAR restoration) was “significantly compromised upon NXTAR restoration”. For the same molecule, the AR levels (AR [2]; VCaP cells, NXTAR overexpression (rescue experiment)) was “significant loss of AR levels” and the AR-V7 expression (AR-V7) was “significantly compromised”.
